{"source": "paper PMC5570423", "about": "“Structural characterisation of TNRC6A nuclear localisation signal in complex with importin-alpha” (PLoS ONE, 2017)", "data": [{"molecular_target": "Mouse importin-α1 lacking the IBB domain (mImpα1ΔIBB; residues 70–529) (mouse, UniProt P52293 70-529)", "experiment": "ELISA; solid phase plate binding assay, no cross-linking: MaxiSorp plates coated with 25 nM GST-cNLS or GST in PBS, 0.2 mM PMSF, 2 mM DTT; serial dilutions of S-tagged mImpα1ΔIBB, 1 hr at 4°C; detected with S-protein-HRP; apparent Kd, one-site specific binding, duplicates", "conditions": "both partners purified", "units": {"Kd": "nM"}, "values": [{"binder": "SGKKKRRER (also called P3 TNRC6A mutant; source: E. coli BL21(DE3), purified)", "note": "[GST-TNRC6A cNLS P3 mutant (Arg1168Lys)]", "Kd": 1880}, {"binder": "SGKKRRKER (source: E. coli BL21(DE3), purified)", "note": "[GST-TNRC6A cNLS P5 mutant (Arg1170 to Lys)]", "Kd": 1140}, {"binder": "PPKKRRRER (also called TNRC6A N-term mutant; source: E. coli BL21(DE3), purified)", "note": "[GST-TNRC6A cNLS N-term mutant (1164Ser-Gly1165 substituted to prolines)]", "Kd": 19}, {"binder": "SGKKRRRER (TNRC6A classical nuclear localisation signal, mouse residues 1164-1172 = human residues 1179-1187 (isoform 1; 926-934 in isoform 2); the motif is strictly conserved between mouse and human; Cloned into pGEX-6P with overlapping oligonucleotides; also called GST-cNLS; GST-NLS; source: E. coli BL21(DE3), purified)", "Kd": 75.6}, {"binder": "SGKKKRKER (source: E. coli BL21(DE3), purified)", "note": "[GST-TNRC6A cNLS P3, P5 mutant (Arg1168Lys and Arg1170Lys)]", "Kd": 898}]}]}
